Results: PMC9652331
pKd: −log10 of the molar value.

Experiments:
Assay in all cases: EMSA
[1] = biological target: WTAP;VIRMA;ZC3H13 (1106-1668) (Homo sapiens;Homo sapiens;Homo sapiens) (UniProt Q15007+Q69YN4+Q5T200); details: WVZ (no HAKAI); EMSA: 5 nM FAM-RNA, 20 mM HEPES pH 7.5, 100 mM KCl, 10% glycerol, 1 mM DTT, 25 C, 20 min; 8% native PAGE in 1x TBE at 4 C; Kd from loss of free RNA, Hill fit …
[2] = biological target: HAKAI;WTAP;VIRMA (Homo sapiens;Homo sapiens;Homo sapiens) (UniProt Q75N03+Q15007+Q69YN4); details: HWV (no ZC3H13); EMSA: 5 nM FAM-RNA, 20 mM HEPES pH 7.5, 100 mM KCl, 10% glycerol, 1 mM DTT, 25 C, 20 min; 8% native PAGE in 1x TBE at 4 C; Kd from loss of free RNA, Hill fit …
[3] = biological target: HAKAI;WTAP;VIRMA;ZC3H13 (1106-1668) (Homo sapiens;Homo sapiens;Homo sapiens;Homo sapiens) (UniProt Q75N03+Q15007+Q69YN4+Q5T200); details: HWVZ; EMSA: 5 nM FAM-RNA, 20 mM HEPES pH 7.5, 100 mM KCl, 10% glycerol, 1 mM DTT, 25 C, 20 min; 8% native PAGE in 1x TBE at 4 C; Kd from loss of free RNA, Hill fit …
[4] = biological target: WTAP;VIRMA (Homo sapiens;Homo sapiens) (UniProt Q15007+Q69YN4); details: WV; EMSA: 5 nM FAM-RNA, 20 mM HEPES pH 7.5, 100 mM KCl, 10% glycerol, 1 mM DTT, 25 C, 20 min; 8% native PAGE in 1x TBE at 4 C; Kd from loss of free RNA, Hill fit …
WTAP;VIRMA (Homo sapiens;Homo sapiens), sequence (Q15007 whole entry, chain 1 of 2): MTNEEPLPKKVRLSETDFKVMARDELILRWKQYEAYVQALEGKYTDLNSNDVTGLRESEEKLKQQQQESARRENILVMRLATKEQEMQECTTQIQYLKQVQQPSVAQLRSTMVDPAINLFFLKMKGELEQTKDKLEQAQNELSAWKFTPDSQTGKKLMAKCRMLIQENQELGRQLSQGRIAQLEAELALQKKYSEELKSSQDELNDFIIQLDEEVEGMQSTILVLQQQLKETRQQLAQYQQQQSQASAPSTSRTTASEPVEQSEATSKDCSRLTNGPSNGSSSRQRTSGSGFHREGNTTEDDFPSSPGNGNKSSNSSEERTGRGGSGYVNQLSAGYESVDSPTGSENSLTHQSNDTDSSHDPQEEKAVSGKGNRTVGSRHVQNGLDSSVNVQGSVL
WTAP;VIRMA (Homo sapiens;Homo sapiens), sequence (Q69YN4 whole entry, chain 2 of 2): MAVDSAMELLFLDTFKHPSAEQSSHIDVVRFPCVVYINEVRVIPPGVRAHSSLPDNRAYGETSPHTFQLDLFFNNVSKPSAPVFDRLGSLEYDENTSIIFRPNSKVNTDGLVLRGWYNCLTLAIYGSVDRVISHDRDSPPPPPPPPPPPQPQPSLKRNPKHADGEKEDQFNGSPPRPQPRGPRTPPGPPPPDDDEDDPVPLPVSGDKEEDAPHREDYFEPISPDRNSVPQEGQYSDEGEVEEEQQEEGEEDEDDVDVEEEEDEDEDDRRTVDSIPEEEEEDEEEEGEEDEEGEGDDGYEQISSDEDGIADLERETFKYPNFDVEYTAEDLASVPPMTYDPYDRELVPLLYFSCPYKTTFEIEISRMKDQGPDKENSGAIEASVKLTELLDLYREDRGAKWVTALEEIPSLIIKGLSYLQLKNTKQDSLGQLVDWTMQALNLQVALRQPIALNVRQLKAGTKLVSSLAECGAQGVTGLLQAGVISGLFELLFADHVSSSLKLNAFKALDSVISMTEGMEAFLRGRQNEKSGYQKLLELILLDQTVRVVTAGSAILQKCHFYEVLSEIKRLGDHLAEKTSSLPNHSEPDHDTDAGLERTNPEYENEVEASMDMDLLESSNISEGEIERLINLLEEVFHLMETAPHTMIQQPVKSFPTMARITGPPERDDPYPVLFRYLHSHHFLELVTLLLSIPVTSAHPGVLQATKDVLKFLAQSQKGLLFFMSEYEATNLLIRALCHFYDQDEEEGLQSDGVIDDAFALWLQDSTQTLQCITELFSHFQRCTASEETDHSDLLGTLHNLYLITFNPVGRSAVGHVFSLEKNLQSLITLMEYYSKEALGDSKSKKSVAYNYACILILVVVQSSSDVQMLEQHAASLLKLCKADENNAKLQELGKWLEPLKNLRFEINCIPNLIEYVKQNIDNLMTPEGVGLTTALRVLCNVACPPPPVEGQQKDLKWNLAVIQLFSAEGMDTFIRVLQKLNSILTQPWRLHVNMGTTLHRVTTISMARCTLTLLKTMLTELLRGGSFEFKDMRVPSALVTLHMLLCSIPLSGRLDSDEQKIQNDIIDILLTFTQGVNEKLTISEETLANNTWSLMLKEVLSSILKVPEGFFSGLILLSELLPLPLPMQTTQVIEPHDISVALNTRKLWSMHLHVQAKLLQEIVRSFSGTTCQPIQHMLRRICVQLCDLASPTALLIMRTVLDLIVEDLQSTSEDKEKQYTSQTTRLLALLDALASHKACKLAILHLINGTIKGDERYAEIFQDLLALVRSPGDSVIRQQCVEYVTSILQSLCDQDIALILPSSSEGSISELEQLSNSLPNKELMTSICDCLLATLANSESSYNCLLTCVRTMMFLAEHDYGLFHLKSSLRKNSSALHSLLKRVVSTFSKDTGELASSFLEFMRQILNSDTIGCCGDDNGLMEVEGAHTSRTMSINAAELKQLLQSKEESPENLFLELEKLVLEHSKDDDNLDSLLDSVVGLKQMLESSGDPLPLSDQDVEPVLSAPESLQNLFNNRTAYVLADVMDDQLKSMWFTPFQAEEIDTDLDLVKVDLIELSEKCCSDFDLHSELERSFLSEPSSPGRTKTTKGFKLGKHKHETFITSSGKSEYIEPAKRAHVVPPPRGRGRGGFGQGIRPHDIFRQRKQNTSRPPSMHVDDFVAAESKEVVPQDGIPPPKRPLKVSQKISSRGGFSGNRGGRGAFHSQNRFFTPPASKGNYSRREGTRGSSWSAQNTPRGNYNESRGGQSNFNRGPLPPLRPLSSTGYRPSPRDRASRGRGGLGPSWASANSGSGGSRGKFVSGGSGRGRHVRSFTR

WTAP;VIRMA;ZC3H13 (1106-1668) (Homo sapiens;Homo sapiens;Homo sapiens), sequence (Q15007 whole entry, chain 1 of 3): as the sequence (Q15007 whole entry, chain 1 of 2) above
WTAP;VIRMA;ZC3H13 (1106-1668) (Homo sapiens;Homo sapiens;Homo sapiens), sequence (Q69YN4 whole entry, chain 2 of 3): as the sequence (Q69YN4 whole entry, chain 2 of 2) above
WTAP;VIRMA;ZC3H13 (1106-1668) (Homo sapiens;Homo sapiens;Homo sapiens), sequence (Q5T200 1106-1668, chain 3 of 3): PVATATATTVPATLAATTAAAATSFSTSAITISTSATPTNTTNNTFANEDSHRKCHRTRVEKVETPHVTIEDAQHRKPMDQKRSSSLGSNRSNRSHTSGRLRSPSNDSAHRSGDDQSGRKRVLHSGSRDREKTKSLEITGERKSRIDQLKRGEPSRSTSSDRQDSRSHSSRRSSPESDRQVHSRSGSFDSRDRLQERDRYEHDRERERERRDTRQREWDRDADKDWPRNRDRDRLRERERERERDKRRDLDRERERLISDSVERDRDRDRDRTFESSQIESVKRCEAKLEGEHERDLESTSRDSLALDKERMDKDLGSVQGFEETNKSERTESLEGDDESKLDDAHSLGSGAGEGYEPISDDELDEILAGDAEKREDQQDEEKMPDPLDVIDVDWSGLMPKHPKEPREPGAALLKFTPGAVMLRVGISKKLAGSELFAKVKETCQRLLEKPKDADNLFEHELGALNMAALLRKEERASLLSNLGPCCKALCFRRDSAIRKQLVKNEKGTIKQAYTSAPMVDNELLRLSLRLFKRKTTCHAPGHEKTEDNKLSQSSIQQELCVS
HAKAI;WTAP;VIRMA (Homo sapiens;Homo sapiens;Homo sapiens), sequence (Q75N03 whole entry, chain 1 of 3): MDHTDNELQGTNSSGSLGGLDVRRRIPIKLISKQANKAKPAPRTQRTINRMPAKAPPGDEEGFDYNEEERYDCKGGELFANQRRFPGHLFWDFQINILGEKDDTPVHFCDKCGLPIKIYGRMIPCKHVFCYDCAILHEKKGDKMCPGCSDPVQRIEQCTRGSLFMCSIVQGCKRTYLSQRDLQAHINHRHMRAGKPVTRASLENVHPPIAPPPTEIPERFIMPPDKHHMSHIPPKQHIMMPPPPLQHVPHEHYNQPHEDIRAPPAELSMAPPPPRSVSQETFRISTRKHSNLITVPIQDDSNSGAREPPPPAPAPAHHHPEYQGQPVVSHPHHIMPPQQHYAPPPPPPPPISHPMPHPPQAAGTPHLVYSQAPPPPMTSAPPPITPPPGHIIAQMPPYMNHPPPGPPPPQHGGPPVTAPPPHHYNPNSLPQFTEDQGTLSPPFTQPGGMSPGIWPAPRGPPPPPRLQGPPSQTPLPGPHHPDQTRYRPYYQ
HAKAI;WTAP;VIRMA (Homo sapiens;Homo sapiens;Homo sapiens), sequence (Q15007 whole entry, chain 2 of 3): as the sequence (Q15007 whole entry, chain 1 of 2) above
HAKAI;WTAP;VIRMA (Homo sapiens;Homo sapiens;Homo sapiens), sequence (Q69YN4 whole entry, chain 3 of 3): as the sequence (Q69YN4 whole entry, chain 2 of 2) above
HAKAI;WTAP;VIRMA;ZC3H13 (1106-1668) (Homo sapiens;Homo sapiens;Homo sapiens;Homo sapiens), sequence (Q75N03 whole entry, chain 1 of 4): as the sequence (Q75N03 whole entry, chain 1 of 3) above
HAKAI;WTAP;VIRMA;ZC3H13 (1106-1668) (Homo sapiens;Homo sapiens;Homo sapiens;Homo sapiens), sequence (Q15007 whole entry, chain 2 of 4): as the sequence (Q15007 whole entry, chain 1 of 2) above
HAKAI;WTAP;VIRMA;ZC3H13 (1106-1668) (Homo sapiens;Homo sapiens;Homo sapiens;Homo sapiens), sequence (Q69YN4 whole entry, chain 3 of 4): as the sequence (Q69YN4 whole entry, chain 2 of 2) above
HAKAI;WTAP;VIRMA;ZC3H13 (1106-1668) (Homo sapiens;Homo sapiens;Homo sapiens;Homo sapiens), sequence (Q5T200 1106-1668, chain 4 of 4): as the sequence (Q5T200 1106-1668, chain 3 of 3) above

GGCCCCUCCAUCGUCCACCGCAAAUGCUUCUAGGCGGACUAUGACUUAGUUGCGUUACACCCUUUCUUGACAAAACCUAACUUGCACAGAAAACA [ACTB-1 RNA]
pKd [1]: 6.59 | pKd [2]: 6.25 | pKd [3]: 6.67 | pKd [4]: 6.08
